Experimental data from patent US20240016901A1, “COMPOSITIONS AND METHODS FOR PREVENTING AND TREATING SARS-COV-2 INFECTION” (priority 2020, published 2024).

B1: Lacto ferrin: a protein found in milk and other secretory fluids; diet supplement (protein, UniProt P24627 20-708, looked up)
Lactotransferrin: APRKNVRWCTISQPEWFKCRRWQWRMKKLGAPSITCVRRAFALECIRAIAEKKADAVTLDGGMVFEAGRDPYKLRPVAAEIYGTKESPQTHYYAVAVVKKGSNFQLDQLQGRKSCHTGLGRSAGWIIPMGILRPYLSWTESLEPLQGAVAKFFSASCVPCIDRQAYPNLCQLCKGEGENQCACSSREPYFGYSGAFKCLQDGAGDVAFVKETTVFENLPEKADRDQYELLCLNNSRAPVDAFKECHLAQVPSHAVVARSVDGKEDLIWKLLSKAQEKFGKNKSRSFQLFGSPPGQRDLLFKDSALGFLRIPSKVDSALYLGSRYLTTLKNLRETAEEVKARYTRVVWCAVGPEEQKKCQQWSQQSGQNVTCATASTTDDCIVLVLKGEADALNLDGGYIYTAGKCGLVPVLAENRKSSKHSSLDCVLRPTEGYLAVAVVKKANEGLTWNSLKDKKSCHTAVDRTAGWNIPMGLIVNQTGSCAFDEFFSQSCAPGADPKSRLCALCAGDDQGLDKCVPNSKEKYYGYTGAFRCLAEDVGDVAFVKNDTVWENTNGESTADWAKNLNREDFRLLCLDGTRKPVTEAQSCHLAVAPNHAVVSRSDRAAHVKQVLLHQQALFGKNGKNCPDKFCLFKSETKNLLFNDNTECLAKLGGRPTYEEYLGTEYVTAIANLKKCSTSPLLEACAFLTR
B2: apolactoferrin: apolactoferrin (Jarrow Formulas, 121011); component of dietary supplements (protein, UniProt P24627 20-708, looked up)
Lactotransferrin: B1 Lactotransferrin
modifications: iron-free apo form
notes: apolactoferrin (Jarrow Formulas, 121011); component of dietary supplements
B3: Hololactoferrin: Hololactoferrin (Sigma Aldrich, L4765) (protein, UniProt P02788 20-710, looked up)
Lactotransferrin: GRRRSVQWCAVSQPEATKCFQWQRNMRKVRGPPVSCIKRDSPIQCIQAIAENRADAVTLDGGFIYEAGLAPYKLRPVAAEVYGTERQPRTHYYAVAVVKKGGSFQLNELQGLKSCHTGLRRTAGWNVPIGTLRPFLNWTGPPEPIEAAVARFFSASCVPGADKGQFPNLCRLCAGTGENKCAFSSQEPYFSYSGAFKCLRDGAGDVAFIRESTVFEDLSDEAERDEYELLCPDNTRKPVDKFKDCHLARVPSHAVVARSVNGKEDAIWNLLRQAQEKFGKDKSPKFQLFGSPSGQKDLLFKDSAIGFSRVPPRIDSGLYLGSGYFTAIQNLRKSEEEVAARRARVVWCAVGEQELRKCNQWSGLSEGSVTCSSASTTEDCIALVLKGEADAMSLDGGYVYTAGKCGLVPVLAENYKSQQSSDPDPNCVDRPVEGYLAVAVVRRSDTSLTWNSVKGKKSCHTAVDRTAGWNIPMGLLFNQTGSCKFDEYFSQSCAPGSDPRSNLCALCIGDEQGENKCVPNSNERYYGYTGAFRCLAENAGDVAFVKDVTVLQNTDGNNNEAWAKDLKLADFALLCLDGKRKPVTEARSCHLAMAPNHAVVSRMDKVERLKQVLLHQQAKFGRNGSDCPDKFCLFQSETKNLLFNDNTECLARLHGKTTYEKYLGPQYVAGITNLKKCSTSPLLEACEFLRK
modifications: iron-saturated holo form

Key:
SARS-CoV-2 [1] = assay: microbe, parasite or virus in culture; format: cell-based; details: Huh-7 cells; for anti-SARS-CoV-2 activity, percentage of infected Huh-7 cells: protein at 2.3 μM, FIG. 6E
SARS-CoV-2 [2] = format: cell-based, SARS-CoV-2 WA1; details: iAECs, pretreatment 1.15 μM, MOI 10
SARS-CoV-2 [3] = format: cell-based, SARS-CoV-2 WA1; details: Huh-7 cells, MOI 0.2, 48 hrs p.i., FIG. 6C
[4] = tested on: IFNβ, ISG15, MX1, Viperin and IFITM3; assay: qPCR of IFNβ and interferon-stimulated gene mRNA in Huh-7 cells; format: cell-based, human; details: lactoferrin-treated Huh-7 cells, FIG. 6D

| Molecule | antiviral activity against SARS-CoV-2 (in words) (SARS-CoV-2 [1]) | antiviral activity when added after infection (SARS-CoV-2 [1]; 2.3 μM added 1 or 24 hrs p.i., MOI 1, 5 and 10, FIG. 6B) | EC50 (SARS-CoV-2 [1]; MOI 0.2, 10-point two-fold dilution dose response in triplicate) | potentiation of efficacy in combination with remdesivir (SARS-CoV-2 [1]; MOI 0.2, FIG. 6G, FIG. 7A) | potentiation of efficacy in combination with hydroxychloroquine (SARS-CoV-2 [1]; MOI 10, FIG. 6H, FIG. 7B) | IC50 (SARS-CoV-2 [1]; read-out: IC50 against SARS-CoV-2 infection) | reduction in the proportion of SARS-CoV-2 infected cells (SARS-CoV-2 [2]) | viral replication (viral genome copies) (SARS-CoV-2 [3]) | mRNA levels of IFNβ and interferon-stimulated genes ISG15, MX1, Viperin and IFITM3 [4] | anti-SARS-CoV-2 activity, percentage of infected Huh-7 cells (SARS-CoV-2 [1]) |
| --- | --- | --- | --- | --- | --- | --- | --- | --- | --- | --- |
| B1 | dose-dependent (3 nM-2.3 μM) and MOI-dependent (0.2-10) antiviral activity | retains antiviral activity | 308 nM | potentiates the efficacy | potentiates the efficacy | 308 nM | two-fold reduction | dose-dependent reduction of viral replication | elevated | – |
| B2 | – | – | – | – | – | – | – | – | – | robust antiviral effect |
| B3 | – | – | – | – | – | – | – | – | – | robust antiviral effect |
